We go through three molecules from patent US20200299367A1 (ARIZONA BOARD OF REGENTS ON BEHALF OF ARIZONA STATE …, published 2020).

The target in the experiment is T1, bovine serum albumin (bovine, UniProt P02769 25-607).
T1 construct: also called BSA
Kind of experiment: AFM single clone screening, phage on mica coated with antigen.

T1 sequence (P02769 25-607 limits assumed): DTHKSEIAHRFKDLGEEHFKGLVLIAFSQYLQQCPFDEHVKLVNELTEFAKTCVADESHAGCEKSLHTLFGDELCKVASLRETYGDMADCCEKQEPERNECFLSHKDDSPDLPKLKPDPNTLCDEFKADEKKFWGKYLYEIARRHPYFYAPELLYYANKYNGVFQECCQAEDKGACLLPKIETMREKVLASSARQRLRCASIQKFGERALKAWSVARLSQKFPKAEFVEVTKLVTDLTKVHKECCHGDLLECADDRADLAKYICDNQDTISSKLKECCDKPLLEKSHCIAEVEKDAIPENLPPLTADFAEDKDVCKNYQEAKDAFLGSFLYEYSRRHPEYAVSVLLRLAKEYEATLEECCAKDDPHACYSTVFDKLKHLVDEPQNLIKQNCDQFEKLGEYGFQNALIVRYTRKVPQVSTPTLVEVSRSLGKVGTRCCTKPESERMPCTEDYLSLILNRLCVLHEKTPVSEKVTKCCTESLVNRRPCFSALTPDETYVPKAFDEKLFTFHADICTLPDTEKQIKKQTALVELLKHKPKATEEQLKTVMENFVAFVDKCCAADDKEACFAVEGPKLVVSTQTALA

B1: F9T scFv (scFv)
scFv: QVQLQESGGGVVQPGRSLRLSCAASGFTFSTSGMHWVRQAPGKGLEWVAFILHDGSDKYYADSVKGRFTISRDNSKNTLYLQMNSLRAEDTAIYYCAKSQRELLGAEYLQNWGQGTLVTVSSGGGGSGGGGSGGGGSQSALTQPASVSGSPGQSITISCTGTSSDVGGYKYVSWYQQHPGKAPKVMIYDVSNRPSGVSNRFSGSKSGNTASLTISGLQAEDEADYYCSSYTSSSTLVFGGGTKVTVLGAAAHHHHHHGAAEQKLISEED
notes: Expressed from pIT2 with a hexahistidine tag and a c-myc tag; the format is named under assay; also called F9T nanobody; F9 (clone before frame-shift repair)
For the molecule B1, the binding result is reported as “no binding”.

B2: D4G scFv (scFv)
scFv: QVQLVASGGDLIQPGGSLRLSCAASGFTFNNYWMTWVRQAPGKGLEWVANIKQDGGEKYYVDSVKGRFTISRDNAKTSLYLQMNSLRAEDTAVYYCAKESYSTGWFDHWGQGTLVTVSSGGGGSGGGGSGGGGSNFMLTQDPAVSVALGQTVRITCQGDSLRKYYTSWYQQKPGQAPLLVMYAKNNRPSGIPDRFSGSSSGNTASLTITGAQAEDEADYYCDSRDSSGDHWVFGGGTKLTVLGAAAEQKLISEEDLNGAA
notes: also called D4 (clone before frame-shift repair)
In the case of B2, the binding result was “no binding”.

B3: G12C scFv (scFv)
scFv: RVQLVESGAEVTKPGASVRVSCKASGYTFSRYDINWVRQASGQGLEWMGWINPNSGNTGYAQKFQGRVTMTRNISITTAYMELSSLRSEDTAVYYCARGLPEFDPWGQGTLVTVSSGGGGSGGGGSGGGGSHVILTQDPAVSVALGQTVRITCQGDSLRSYYASWYQQKPGQAPVLVIYGKNNRPSGIPDRFSGSSSGNTASLTITGAQAEDEADFYCNSRDSSGTHLEVFGGGTKVTVLGAAAEQKLISEEDLNGAA
notes: also called G12 (clone before frame-shift repair)
As to B3, the binding result was “no binding”.
